From US20160264653A1 (published 2016)

B2: human ephrin-A4 ligand (EFNA4) expressed on the cell surface (ligand)
chain: LRHVVYWNSSNPRLLRGDAVVELGLNDYLDIVCPHYEGPGPPEGPETFALYMVDWPGYESCQAEGPRAYKRWVCSLPFGHVQFSEKIQRFTPFSLGFEFLPGETYYYISVPTPESSGQCLRLQVSVCCKERKSESAHPVGSPGES
notes: GPI-anchored; Cells used: HEK293T.hEFNA4 (retroviral overexpression), parental HEK293T (low level), Jurkat, Z138, K562, PC3, NTX tumor cells; also called hEFNA4; HEK293T.hEFNA4 cells

Assays:
EFNA4 antigen = target: T1, EFNA4 antigen (human, UniProt P52798 26-170, limits assumed); test: SPR (Biacore); fixed antibody, antigen concentration series; 1:1 Langmuir model
T1 construct: also called ephrin-A4 antigen
T1 sequence: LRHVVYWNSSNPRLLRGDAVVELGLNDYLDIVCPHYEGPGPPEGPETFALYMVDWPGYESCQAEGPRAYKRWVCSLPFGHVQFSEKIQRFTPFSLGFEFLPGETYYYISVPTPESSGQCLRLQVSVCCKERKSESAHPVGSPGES
Protocol: Finally, the affinity of selected modulators was measured by surface plasmon resonance (Biacore System, GE Healthcare). Based on a standard antigen concentration series and using a 1:1 Langmuir binding model, the Kd of the antibody binding to antigen and the kinetic constants kₒₙ and koff were determined.

[1] = target: T2, Fc portion of human IgG alone (human, UniProt P01857-1 100-330 = IgG part, limits assumed); test: flow cytometry on Jurkat cells (known to express EFNA) (FIG. 12A)
T2 construct: domain: Fc; also called human IgG Fcgamma1 fragment

EphB4-Fc = target: T3, EphB4-Fc (human, UniProt P54760 16-539, limits assumed); test: flow cytometry; EphB-Fc on HEK293T.hEFNA4 cells (FIG. 20B)
T3 construct: extracellular domain; not shown: human IgG1 Fc
T3 sequence (looked up): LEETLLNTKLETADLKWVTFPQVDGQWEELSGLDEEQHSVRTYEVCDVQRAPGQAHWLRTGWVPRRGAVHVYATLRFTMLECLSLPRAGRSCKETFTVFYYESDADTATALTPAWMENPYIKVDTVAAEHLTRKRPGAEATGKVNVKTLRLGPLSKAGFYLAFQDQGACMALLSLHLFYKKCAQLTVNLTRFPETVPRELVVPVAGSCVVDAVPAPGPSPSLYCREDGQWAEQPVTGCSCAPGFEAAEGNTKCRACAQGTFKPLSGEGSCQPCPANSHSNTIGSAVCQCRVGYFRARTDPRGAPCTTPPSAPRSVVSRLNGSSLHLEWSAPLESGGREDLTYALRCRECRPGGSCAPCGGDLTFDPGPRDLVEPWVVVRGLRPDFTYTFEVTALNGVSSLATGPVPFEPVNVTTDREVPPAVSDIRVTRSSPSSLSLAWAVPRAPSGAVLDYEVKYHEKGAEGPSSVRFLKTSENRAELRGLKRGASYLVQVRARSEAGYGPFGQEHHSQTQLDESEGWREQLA

[2] = target: B2; test: cell-based or functional assay
human ephrin-A4-His = target: T4, human ephrin-A4-His (human, UniProt P52798 26-170, limits assumed); test: ELISA; titrated ephrin-A4-His coated, 0.5 ug/ml hSC4.15 (FIG. 13C)
T4 construct: also called hEFNA4-ECD-His; EFNA4 His fusion protein; not shown: His tag
T4 sequence: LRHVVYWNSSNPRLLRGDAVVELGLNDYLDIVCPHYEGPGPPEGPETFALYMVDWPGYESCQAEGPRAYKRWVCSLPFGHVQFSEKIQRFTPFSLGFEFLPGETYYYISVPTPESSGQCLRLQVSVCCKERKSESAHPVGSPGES

mouse ephrin-A4-His = target: T5, mouse ephrin-A4-His (mouse, UniProt O08542 26-175, limits assumed); test: as above
T5 construct: also called murine EFNA4-His; not shown: His tag
T5 sequence (looked up): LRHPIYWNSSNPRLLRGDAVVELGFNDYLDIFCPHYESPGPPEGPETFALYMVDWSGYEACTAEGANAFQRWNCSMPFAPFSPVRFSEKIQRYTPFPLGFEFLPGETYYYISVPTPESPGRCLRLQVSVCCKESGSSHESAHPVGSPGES

B1: hSC4.47 (antibody, human IgG1, V domains shown)
VH: QVQLVQSGAEVKKPGASVKVSCKASGYTFTYFYMNWVRQAPGQGLEWVGQINPNNGGTAYAQKFQGRVTMTRDTSTSTVYMELSSLRSEDTAVYYCARWVGTHYFDYWGQGTTLTVSS
VL: EIVLTQSPATLSLSPGERATLSCRASQSVSSSSYTYIHWYQQKPGQAPRLLINFASNLESGIPARFSGSGSGTDFTLTISSLEPEDFAVYYCQHSWEIPPTFGGGTKLEIK
notes: also called humanized SC4.47
**Q.** How did the Kd (EFNA4 antigen) turn out when B1 was run?
**A.** Its Kd is under 0.1 nM.

**Q.** Does B2 bind [1]?
**A.** Result: no binding

**Q.** Does B2 bind (EphB4-Fc)?
**A.** Result: no binding

B3: hSC4.15 (antibody, V domains shown)
VH: EVQLVESGGGLVKPGGSLRLSCAASGFTFSTYGMSWVRQAPGKGLEWVATISSGGTYTYYPDSVKGRFKISRDNAKNSLYLQMNSLRAEDTAVYYCTRHDPNDGYYFLFAYWGQGTLVTVSS
VL: EIVLTQSPGTLSLSPGERATLSCKASQSVGNNVAWYQQKPGQAPRLLIYYASNRYTGIPDRFSGSGSGTDFTLTISRLEPEDFAVYYCQQHYSSPLTFGAGTKLEIK
notes: also called humanized SC4.15
**Q.** What does the source list for B3?
**A.** EC50 (pM) of killing, saporin-Fab in vitro cytotoxicity assay, HEK293T.hEFNA4 cells [2]: 13.7 pM; EC50 (pM) of killing, saporin-Fab in vitro cytotoxicity assay, PC3 cells [2]: 5.4 pM; binding result (human ephrin-A4-His): binds; binding result (mouse ephrin-A4-His): binds
